Assay [1] has as its target T1, cynomolgus monkey FcγRIIb extracellular domain with C-terminal His-tag (cynomolgus monkey).
T1 construct: also called cyno FcgRIIb; cynoFcγRIIb
T1 chain: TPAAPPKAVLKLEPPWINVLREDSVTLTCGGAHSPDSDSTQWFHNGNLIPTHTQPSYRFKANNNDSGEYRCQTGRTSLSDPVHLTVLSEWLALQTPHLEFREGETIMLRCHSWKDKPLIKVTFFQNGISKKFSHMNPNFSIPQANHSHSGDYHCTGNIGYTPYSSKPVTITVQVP
In words: SPR (BIACORE), antibody captured, FcgR analyte.

Assay [2] has as its target T1, cynomolgus monkey FcγRIIb extracellular …. Nature of the assay: SPR (BIACORE); KD of SG1 / KD of variant.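 Note: relative to parent M103205H795-SG1 carrying the SG1 human heavy chain constant region.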
In assay [3] the target is T2, cynomolgus monkey FcγRIIa1 extracellular domain with C-terminal His-tag (cynomolgus monkey).
T2 construct: also called cyno FcgRIIa1; cynoFcγRIIa1
T2 chain: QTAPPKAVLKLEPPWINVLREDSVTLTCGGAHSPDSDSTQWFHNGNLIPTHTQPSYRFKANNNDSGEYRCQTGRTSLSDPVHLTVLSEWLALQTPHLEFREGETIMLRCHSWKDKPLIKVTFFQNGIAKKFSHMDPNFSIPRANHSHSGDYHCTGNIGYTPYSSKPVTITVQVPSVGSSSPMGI
Nature of the assay: SPR (BIACORE); KD of SG1 / KD of variant.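 Note: relative to parent M103205H795-SG1 carrying the SG1 human heavy chain constant region.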

Assay [4] deals with T3, human FcγRIIb extracellular domain with C-terminal His-tag (human, UniProt P31994 43-217).
T3 construct: also called human FcgRIIb
T3 sequence: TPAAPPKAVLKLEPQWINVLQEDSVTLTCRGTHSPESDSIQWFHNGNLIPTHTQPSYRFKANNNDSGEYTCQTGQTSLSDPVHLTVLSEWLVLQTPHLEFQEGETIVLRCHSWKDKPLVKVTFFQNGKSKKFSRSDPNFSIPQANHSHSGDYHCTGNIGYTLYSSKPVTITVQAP
In words: SPR (BIACORE); KD of SG1 / KD of variant.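 Note: relative to parent M103205H795-SG1 carrying the SG1 human heavy chain constant region.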

Assay [5] addresses T4, cynomolgus monkey FcγRIIIaS extracellular domain with C-terminal His-tag (cynomolgus monkey, UniProt Q8SPW2 21-206 at identity 1.00)).
T4 construct: also called cyno FcgRIIIaS; cynoFcγRIIIaS
T4 chain: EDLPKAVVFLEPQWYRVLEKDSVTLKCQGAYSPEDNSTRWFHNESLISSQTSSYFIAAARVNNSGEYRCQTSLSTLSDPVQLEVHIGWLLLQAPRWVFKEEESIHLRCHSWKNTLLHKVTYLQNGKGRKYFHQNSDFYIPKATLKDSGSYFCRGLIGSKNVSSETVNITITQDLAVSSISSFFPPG
Nature of the assay: SPR (BIACORE); KD of SG1 / KD of variant.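 Note: relative to parent M103205H795-SG1 carrying the SG1 human heavy chain constant region.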

Assay [6] has as its target T5, human FcγRIIIaV extracellular domain with C-terminal His-tag (human, UniProt P08637 17-208).
T5 construct: also called human FcgRIIIaV
In words: SPR (BIACORE); KD of SG1 / KD of variant.

Assay [7] concerns the target T6, human FcγRIIaH extracellular domain with C-terminal His-tag (human, UniProt P12318 34-217).
T6 construct: also called human FcgRIIaH; FcγRIIa (type H)
T6 sequence: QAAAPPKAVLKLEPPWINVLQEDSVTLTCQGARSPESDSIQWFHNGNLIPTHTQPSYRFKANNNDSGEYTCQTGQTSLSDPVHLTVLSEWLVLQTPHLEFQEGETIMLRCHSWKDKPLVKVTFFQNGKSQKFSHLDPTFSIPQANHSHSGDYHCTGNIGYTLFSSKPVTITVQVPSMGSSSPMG
In words: SPR (BIACORE); KD of SG1 / KD of variant.

Assay [8] addresses T7, cynomolgus monkey FcγRIIa3 extracellular domain with C-terminal His-tag (cynomolgus monkey).
T7 construct: also called cyno FcgRIIa3; cynoFcγRIIa3
T7 chain: T2 chain with P95T, T121A, A128S, H133P, D135N
In words: SPR (BIACORE); KD of SG1 / KD of variant.

Assay [9] has as its target T8, cynomolgus monkey FcγRIIa2 extracellular domain with C-terminal His-tag (cynomolgus monkey).
T8 construct: also called cyno FcgRIIa2; cynoFcγRIIa2
T8 chain: T2 chain with P95T, T121A, I127K, A128S, K130N, D135N, R142Q
Nature of the assay: SPR (BIACORE); KD of SG1 / KD of variant.

Where a chain is given by its changes, count along the chain named.

T5 sequence (P08637 17-208 F176V): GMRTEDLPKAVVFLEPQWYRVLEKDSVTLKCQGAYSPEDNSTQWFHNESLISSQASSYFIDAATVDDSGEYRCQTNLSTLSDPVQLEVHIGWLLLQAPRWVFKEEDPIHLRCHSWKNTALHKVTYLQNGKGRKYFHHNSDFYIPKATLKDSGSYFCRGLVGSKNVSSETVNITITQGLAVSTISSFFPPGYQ

B1: M103205H795-MY209/M103202L889-SK1 (antibody, human IgG1, kappa)
heavy: QVTLKESGPVLVKPTETLTLTCTVSGIDLSHDDISWVRQAPGKGLEWVGIISYAGSTYYASWAKGRLTISKDTSKNQVVLTMTNMDPVDTATYYCARGVPAYSHGGDLWGQGTLVTVSSASTKGPSVFPLAPSSKSTSGGTAALGCLVKDYFPEPVTVSWNSGALTSGVHTFPAVLQSSGLYSLSSVVTVPSSSLGTQTYICNVNHKPSNTKVDKKVEPKSCDKTHTCPPCPAPELLNGPSVFLFPPKPKDTLMISRTPEVTCVVVDVSDEDPEVKFNWYVDGVEVHNAKTKPREELYNSTYRVVSVLTVLHQDWLNGKEYKCKVSNTALPKPIEKTISKAKGQPREPQVYTLPPSREEMTKNQVSLTCLVKGFYPSDIAVEWESNGQPENNYKTTPPVLDSDGSFFLYSKLTVDKSRWQQGNVFSCSVMHEALHNHYTQKSLSLSP
light: DIVMTQSPATLSLSPGERATLSCTSSQSVYHANWLSWFQQKPGQPPKLLIYWASTLAYGVPSRFSGSGSGTDFTLTISSLQPEDAATYYCAGGYGGGRYAFGQGTKVEIKRTVAAPSVFIFPPSDEQLKSGTASVVCLLNNFYPREAKVQWKVDNALQSGNSQESVTEQDSKDSTYSLSSTLTLSKADYEKHKVYACEVTHQGLSSPVTKSFNRGEC
notes: Substitutions introduced into M103205H795-SG1, expressed with M103202L889-SK1 as light chain; EU numbering
For B1, in assay [1], the Kd came out at 0.19 µM. Also, the “KD fold (SG1 = 1)” value in [2] is 9.5 fold; in [3] it was 5.1 fold; in [4], 9.2 fold; in [5], 0.16 fold; in [6], 0.06 fold; in assay [7], 1.2 fold. For the same molecule, the “KD fold (SG1 = 1)” value came to 8.9 fold in assay [8] and 7.4 fold in assay [9].

B2: M103205H795-MY340/M103202L889-SK1 (antibody, human IgG1, kappa)
heavy: B1 heavy with N238L, T328K, P398K
light: B1 light
notes: as for B1
The molecule B2 displayed a Kd in assay [1] of 1.1 µM. The “KD fold (SG1 = 1)” value in assay [2] worked out at 1.6 fold; in assay [3], 0.7 fold; in [4] it was 1.4 fold; in assay [5] it was 0.16 fold; in assay [6], 0.05 fold; in assay [7], 2.2 fold. The “KD fold (SG1 = 1)” value came to 0.7 fold in [8] and 1 fold in assay [9].

B3: M103205H795-MY341/M103202L889-SK1 (antibody, human IgG1, kappa)
heavy: B1 heavy with N238L, P398K
light: B1 light
notes: as for B1
B3 registered a Kd in assay [1] of 0.6 µM. For the same molecule, the “KD fold (SG1 = 1)” value worked out at 3 fold in assay [2]; 1.2 fold in assay [3]; 2.6 fold in [4]; 0.38 fold in assay [5]; 0.12 fold in assay [6]; 2.7 fold in assay [7]. Further, the figures for the “KD fold (SG1 = 1)” value in [8] and in assay [9] were 1.9 fold and 1.8 fold, respectively.

B4: M103205H795-MY283/M103202L889-SK1 (antibody, human IgG1, kappa)
heavy: B1 heavy with N238T, T328K
light: B1 light
notes: as for B1
As to B4, the dissociation constant Kd in [1] came out at 0.42 µM. Besides, the “KD fold (SG1 = 1)” value stood at 4.3 fold in [2]; 2.3 fold in [3]; 2.6 fold in assay [4]; 0.16 fold in [5]; 0.14 fold in [6]; 4.9 fold in assay [7]. Besides, the “KD fold (SG1 = 1)” value in [8] was found to be 3.5 fold; in assay [9], 3.2 fold.

B5: M103205H795-MY339/M103202L889-SK1 (antibody, human IgG1, kappa)
heavy: B1 heavy with N238L, L297Q, P398K
light: B1 light
notes: as for B1
In [1], B5 registered a Kd of 0.75 µM. Moreover, the “KD fold (SG1 = 1)” value in [2] was found to be 2.4 fold; in assay [3], 0.9 fold; in [4] it was 1.5 fold; in [5] it was 0.47 fold; in assay [6], 0.14 fold; in assay [7] it was 1.7 fold. The “KD fold (SG1 = 1)” value in assay [8] and in [9] was 1.7 fold each time.
